This test deals with His fused LCK (His-LCK) (human, UniProt P06239 1-509). Nature of the test: pull-down.

Experimental findings from paper doi:10.1101/2022.01.26.477835 (bioRxiv, 2022) are described below.

Sequence of His fused LCK (His-LCK) (P06239 whole entry, the tested form may be a part): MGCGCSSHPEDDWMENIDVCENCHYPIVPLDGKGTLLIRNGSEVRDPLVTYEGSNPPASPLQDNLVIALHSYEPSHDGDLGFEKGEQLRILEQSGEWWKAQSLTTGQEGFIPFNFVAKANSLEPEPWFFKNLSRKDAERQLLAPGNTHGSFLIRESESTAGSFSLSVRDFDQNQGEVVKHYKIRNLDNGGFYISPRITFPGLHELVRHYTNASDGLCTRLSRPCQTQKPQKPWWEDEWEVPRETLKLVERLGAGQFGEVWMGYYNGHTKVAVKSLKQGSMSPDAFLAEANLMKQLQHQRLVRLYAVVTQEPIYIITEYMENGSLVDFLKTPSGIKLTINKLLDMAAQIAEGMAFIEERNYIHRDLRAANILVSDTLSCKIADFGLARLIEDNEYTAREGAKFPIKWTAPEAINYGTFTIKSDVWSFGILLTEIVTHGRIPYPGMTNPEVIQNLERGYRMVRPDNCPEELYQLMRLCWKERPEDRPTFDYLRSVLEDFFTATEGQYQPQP

B1: GST-tagged C-terminus of TRPM8 (GST-M8C) (domain or fragment, rat, UniProt Q8R455 980-1104, looked up)
chain: GYTVGIVQENNDQVWKFQRYFLVQEYCNRLNIPFPFVVFAYFYMVVKKCFKCCCKEKNTESSACCFRNEDNETLAWEGVMKENYLVKINTKANDNAEEMRHRFRQLDTKLNDLKGLLKEIANKIK
Regarding B1, the binding result was “binds”.
